Molecular target: T1, purified EGFR (epidermal growth factor receptor) (human, UniProt P00533 25-1210)
T1 construct: epidermal growth factor receptor (EGFR), human, full length protein isolated from A431 cells; also called EGFR protein; source: bought: ENZO (BML-SE116), full length protein isolated from human A431 cells
Experiment: co-IP; in vitro binding assay: 1 μg purified EGFR with 10 μg FLAG-PGRMC1 (a.a.44–195) treated with 50 μmol l^−1 haemin, anti-FLAG (M2) agarose; 20 mmol l^−1 HEPES-NaOH (pH 7.9), 100 mmol l^−1 NaCl, 0.2 mmol l^−1 EDTA, 10% glycerol, 0.1% NP40, room temperature
Conditions: both partners purified

B1: FLAG-PGRMC1 wild-type (a.a.44–195) (domain or fragment)
chain: not shown
notes: progesterone-receptor membrane component 1 (PGRMC1), human, cytosolic domain a.a.44–195; The cloning of the FLAG-tagged 44–195 construct is not described; probably made like the other a.a.44–195 proteins (pGEX6P-1, E. coli BL21 (DE3), GST cleaved); Used as apo form or treated with 50 μmol l^−1 haemin; also called FLAG-PGRMC1 wt (a.a.44–195); cytosolic domain of wild-type PGRMC1
  binding result: binds

— PMC4802085, “Haem-dependent dimerization of PGRMC1/Sigma-2 receptor facilitates cancer proliferation and chemoresistance” (Nature Communications, 2016)
